Experimental data taken from publication PMC7745063, “Investigating the reaction and substrate preference of indole-3-acetaldehyde dehydrogenase from the plant pathogen Pseudomonas syringae PtoDC3000” (Bioscience Reports, 2020).
Residue numbers refer to the chain shown, from its start. Numbers in names are those of the source.

What was measured:
[1] = biological target: the molecule itself; test: crystal structure; AldA C302A with IAA and NAD+, hanging drop at 4°C, 24% PEG-1000, 100 mM Tris/HCl pH 7.0; 2.85 Å; eight monomers in the asymmetric unit
[2] = biological target: the molecule itself; test: SEC

B1: AldA C302A mutant (enzyme)
chain: MTTLTRADWEQRAQNLKIEGRAFIQGEYTAAASGETFDCISPVDGRLLAKVASCDAADAQRAVESARSAFDSGAWSRLAPAKRKATMIRFAGLLEQNAEELALLETLDMGKPISDSLGVDIPGGARALSWSGEAIDKLYDEVAATPHDQLGLVTREPVGVVAAIVPWNFPLMMACWKLGPALSTGNSVVLKPSEKSPLTAIRIAQLAIEAGIPAGVLNVLPGYGHTVGKALALHMDVDTVVFTGSTKIAKQLMIYAGESNMKRVWLEAGGKSPNIVFADAPDLQAAADSAASAIAFNQGEVATAGSRLLVERSIKDRFLPMVIEALGTWKPGNPLDPATNVGALVDTQQMNTVLSYIAAGHTDGARLVAGGKQILQETGGTYVEPTIFDGVNNAMRIAQEEIFGPVLSVLTFDTAEEAIQIANDTPYGLAAAVWTANLSKAHLTARALRAGSVWVNQYDGGDMTAPFGGFKQSGNGRDKSLHAFDKYTELKSTWIKL
notes: source: E. coli BL21 (DE3), purified (Ni-NTA, Superdex-200 size-exclusion)
stoichiometry N [1]: 4

B2: AldA E267A mutant (enzyme)
chain: B1 chain with E267A, A302C
notes: as for B1
stoichiometry N [2]: 4

B3: AldA indole-3-acetaldehyde dehydrogenase from Pseudomonas syringae strain PtoDC3000, wild-type (enzyme)
chain: B1 chain with A302C
notes: also called wild-type AldA; WT; source: E. coli BL21 (DE3), purified (Ni-NTA, Superdex-200 size-exclusion)
stoichiometry N [2]: 4

B4: AldA E267Q mutant (enzyme)
chain: B1 chain with E267Q, A302C
notes: as for B1
stoichiometry N [2]: 4
